The record followed here is patent publication US20230038638A1, “COMPLEMENT FACTOR I-RELATED COMPOSITIONS AND METHODS” (published 2023).

The chains are these.
T1: human C4b (human) (UniProt P0C0L4)
T1 sequence: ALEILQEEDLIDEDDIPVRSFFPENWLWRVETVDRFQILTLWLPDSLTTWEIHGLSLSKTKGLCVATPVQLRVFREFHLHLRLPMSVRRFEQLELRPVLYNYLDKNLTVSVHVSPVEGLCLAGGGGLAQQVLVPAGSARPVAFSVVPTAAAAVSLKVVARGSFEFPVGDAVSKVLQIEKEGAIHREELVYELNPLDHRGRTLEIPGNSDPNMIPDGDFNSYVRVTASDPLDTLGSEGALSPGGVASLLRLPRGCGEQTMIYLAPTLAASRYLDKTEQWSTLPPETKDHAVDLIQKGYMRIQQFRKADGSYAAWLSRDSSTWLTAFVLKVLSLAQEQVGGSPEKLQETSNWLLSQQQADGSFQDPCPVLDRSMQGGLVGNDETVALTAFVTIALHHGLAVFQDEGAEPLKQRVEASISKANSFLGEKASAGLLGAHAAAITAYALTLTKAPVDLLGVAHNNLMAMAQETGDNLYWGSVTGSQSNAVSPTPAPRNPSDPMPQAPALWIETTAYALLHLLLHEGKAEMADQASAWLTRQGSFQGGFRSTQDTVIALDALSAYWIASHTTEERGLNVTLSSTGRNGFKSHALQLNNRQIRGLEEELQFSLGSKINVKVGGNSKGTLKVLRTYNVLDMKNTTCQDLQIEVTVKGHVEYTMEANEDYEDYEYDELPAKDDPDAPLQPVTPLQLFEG

T2: human C4b (human) (UniProt P0C0L5)
T2 sequence: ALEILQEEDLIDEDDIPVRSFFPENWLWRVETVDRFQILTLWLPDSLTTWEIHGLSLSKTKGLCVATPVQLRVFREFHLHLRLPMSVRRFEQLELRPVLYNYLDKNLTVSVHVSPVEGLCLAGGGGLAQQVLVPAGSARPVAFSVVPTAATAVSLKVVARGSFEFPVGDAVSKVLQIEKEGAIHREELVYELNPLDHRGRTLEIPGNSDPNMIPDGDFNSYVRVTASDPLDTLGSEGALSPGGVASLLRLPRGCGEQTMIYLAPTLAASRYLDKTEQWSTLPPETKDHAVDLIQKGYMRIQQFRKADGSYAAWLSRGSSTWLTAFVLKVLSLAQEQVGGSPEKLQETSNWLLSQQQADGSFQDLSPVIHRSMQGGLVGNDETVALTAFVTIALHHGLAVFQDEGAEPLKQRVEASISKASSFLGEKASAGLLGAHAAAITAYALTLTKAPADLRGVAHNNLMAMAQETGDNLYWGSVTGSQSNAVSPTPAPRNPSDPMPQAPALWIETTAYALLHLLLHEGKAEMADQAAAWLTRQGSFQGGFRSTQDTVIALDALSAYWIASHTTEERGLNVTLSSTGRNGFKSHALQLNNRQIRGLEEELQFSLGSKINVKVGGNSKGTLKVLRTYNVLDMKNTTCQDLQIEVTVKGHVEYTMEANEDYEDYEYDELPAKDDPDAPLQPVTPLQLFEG

B1: WT mouse CFI; His tag (enzyme)
chain: RSPSASDLPQEELVDQKCLLQKYTHRSCNKVFCQPWQRCIEGTCICKLPYQCPRAGTPVCAMNGRSYPTYCHQKSFECLHPEIKFSHNGTCAAEGKFNVSLIYGRTKTEGLVQVKLVDQDERMFICKNSWSMAEANVACVDLGFPLGVRDIQGSFNISGNLHINDTECLHVHCRGVETSLAECAFTKRRTELSNGLAGVVCYKQDADFPTSLSFQCVNGKHIPQEKACNGVNDCGDQSDELCCKGCRGNASLCKSGVCIPDQYKCNGEVDCITGEDESRCEEDRQQNIPKGLARSAQGEAEIETEETEMLTPGMDNERKRIKSLLPKLSCGVKRNTHTRRKRVIGGKPANVGDYPWQVAIKDGQRITCGGIYIGGCWILTAAHCVRPSRAHSYQVWTALLDWLKPNSQLGIQTVKRVIVHEKYNGATFQNDIALIEMKMHTGKKECELPNSVPACVPWSPYLFQPNDRCIISGWGRGKDNQKVYSLRWGEVDLIGNCSQFYPDRYYEKEMQCAGTRDGSIDACKGDSGGPLVCEDINNVTYVWGIVSWGENCGKPEFPGVYTRVANYFDWISYHVGRSLVSQHNV

One experiment deals with soluble human C3b (human) (UniProt P01024).
For the molecule CFI-HSA variant K504E (enzyme), the iC3b Screen Ref Fold (fold of reference) worked out at 0.12 and the iC3b Screen Ref Fold (fold vs CFI-HSA wild type) was 0.88.

As to CFI-HSA variant P384G (enzyme), the iC3b Screen Ref Fold (fold of reference) came out at 0.01 and the iC3b Screen Ref Fold (fold vs CFI-HSA wild type) was 0.03.

For the molecule “CFI-HSA-FH_CCP1-4 fusion, Y408L; N531G; GGSSGG (SEQ ID NO: 6); CCP_1-4 (enzyme)”, the iC3b Screen Ref Fold (fold of reference) was 0.05.

For B1, the iC3b Screen Ref Fold (fold of CFI-HSA wild type) is 0.03.

The target in a further experiment is T1, human C4b (human).
CFI-HSA variant K504E (enzyme): the C4b Screen Ref Fold (fold of reference) was determined as 0.24.

Turning to CFI-HSA variant P384G (enzyme), the C4b Screen Ref Fold (fold of reference) is 0.1.

As for “CFI-HSA-FH_CCP1-4 fusion, Y408L; N531G; GGSSGG (SEQ ID NO: 6); CCP_1-4 (enzyme)”, the C4b Screen Ref Fold (fold of reference) was found to be 1.4.

For B1, the C4b Screen Ref Fold (fold of CFI-HSA wild type) is -0.08.

In another experiment the target is T2, human C4b (human).
As for CFI-HSA variant K504E (enzyme), the C4b Screen Ref Fold (fold vs CFI-HSA wild type) turned out to be 0.24.

As to CFI-HSA variant P384G (enzyme), the C4b Screen Ref Fold (fold vs CFI-HSA wild type) is 0.04.

A further experiment addresses T1, human C4b (human). The source holds these as a separate data set.
In turn, “CFI-HSA variant E457G; E461Q; F464Y (enzyme)” had a C4c EC50 of 40.3 nM.

“CFI-HSA variant E457G; E461Q; F464Y; N531G; GGSSGG (SEQ ID NO: 6); CR1 (ccp15-17) (from UniProt P17927) (enzyme)” displayed a C4c EC50 (nM) of 38.4 nM.

As to “CFI-HSA variant E457G; E461Q; R462K (enzyme)”, the C4c EC50 was determined as 60.2 nM.

Molecule CFI-HSA variant E457G; E530Y (enzyme) came in with a C4c EC50 (nM) of 332 nM.

For CFI-HSA variant E457G; F464Y (enzyme), the C4c EC50 came out at 82.3 nM.

The molecule “CFI-HSA variant E457G; N531G; E461Q; R462K; F464Y; E530Y; GGSSGG (SEQ ID NO: 6); CR1(ccp15-17) (from UniProt P17927) (enzyme)” yielded a C4c EC50 (nM) of 86.7 nM.

Regarding “CFI-HSA variant E457G; N531G; E461Q; R462K; F464Y; GGSSGG (SEQ ID NO: 6); CR1 (ccp1-3) (from UniProt P17927) (enzyme)”, the C4c EC50 (nM) was > 1000 nM.

In turn, “CFI-HSA variant E457G; P535G; WT; GGSSGG (SEQ ID NO: 6); CR1(ccp15-17) (enzyme)” showed a C4c EC50 of 57.5 nM.

CFI-HSA variant E457G; R462K (enzyme) returned a C4c EC50 of 52.7 nM.

On to “CFI-HSA variant E457G; R462K; F464Y (enzyme)”, for which the C4c EC50 worked out at 84.6 nM.

Take CFI-HSA variant E457G; Y408L (enzyme): the C4c EC50 came to 108 nM.

Regarding CFI-HSA variant E461Q; F464Y (enzyme), the C4c EC50 is 123 nM.

The molecule CFI-HSA variant E461Q; R462K (enzyme) showed a C4c EC50 of 95.9 nM.

“CFI-HSA variant E461Q; R462K; F464Y (enzyme)” had a C4c EC50 of 159 nM.

In the case of CFI-HSA variant F464A (enzyme), the C4c EC50 was > 1000 nM.

As to CFI-HSA variant F464I (enzyme), the C4c EC50 is > 1000 nM.

Regarding CFI-HSA variant F464L (enzyme), the C4c EC50 was > 1000 nM.

Consider “CFI-HSA variant K14A; D425R; Y408L-N531G (enzyme)”, for which the C4c EC50 turned out to be 58.1 nM.

CFI-HSA variant K534M (enzyme) came in with a C4c EC50 of 154 nM.

Turning to CFI-HSA variant K534N (enzyme), the C4c EC50 was found to be 300 nM.

In turn, “CFI-HSA variant N531G; D425R; E530Y (enzyme)” had a C4c EC50 (nM) of 162 nM.

“CFI-HSA variant N531G; E457G; R462K; F464Y (enzyme)” displayed a C4c EC50 of 33 nM.

With “CFI-HSA variant N531G; E461Q; F464Y (enzyme)”, the C4c EC50 was determined as 28.8 nM.

In turn, “CFI-HSA variant N531G; E461Q; R462K; F464Y (enzyme)” showed a C4c EC50 of 24 nM.

For CFI-HSA variant N531G; E530Y (enzyme), the C4c EC50 (nM) turned out to be 38.2 nM.

In turn, CFI-HSA variant N531G; F464Y (enzyme) gave a C4c EC50 of 63.5 nM.

Molecule CFI-HSA variant N531G; R462K (enzyme) showed a C4c EC50 of 51.2 nM.

Take “CFI-HSA variant N531G; R462K; F464Y (enzyme)”: the C4c EC50 was 54.8 nM.

Molecule “CFI-HSA variant T346K; Y408L; N531G (enzyme)” showed a C4c EC50 of 209 nM.

With CFI-HSA variant T407G (enzyme), the C4c EC50 amounted to 329 nM.

CFI-HSA variant T407G; E457G (enzyme) had a C4c EC50 of 545 nM.

Molecule CFI-HSA variant T407G; N531G (enzyme) showed a C4c EC50 of 620 nM.

For the molecule CFI-HSA variant T407G; Y408L (enzyme), the C4c EC50 was 435 nM.

“CFI-HSA variant T407G; Y408L; E457G (enzyme)” displayed a C4c EC50 of 300 nM.

“CFI-HSA variant Y408L; D425R; E530Y (enzyme)”: the C4c EC50 (nM) is 900 nM.

For the molecule “CFI-HSA variant Y408L; E457G; E461Q (enzyme)”, the C4c EC50 turned out to be 36.1 nM.

“CFI-HSA variant Y408L; E457G; E461Q; R462K; N531G; GGSSGG (SEQ ID NO: 6); CR1 (ccp15-17) (from UniProt P17927) (enzyme)” returned a C4c EC50 (nM) of 91 nM.

Turning to “CFI-HSA variant Y408L; E457G; E530Y (enzyme)”, the C4c EC50 (nM) turned out to be 26.5 nM.

The molecule “CFI-HSA variant Y408L; E457G; F464Y (enzyme)” had a C4c EC50 of 110 nM.

The molecule “CFI-HSA variant Y408L; E457G; N531G; D425R; E530Y (enzyme)” came in with a C4c EC50 (nM) of 92.9 nM.

Consider “CFI-HSA variant Y408L; E457G; N531G; E530Y (enzyme)”, for which the C4c EC50 (nM) stood at 35.4 nM.

In turn, “CFI-HSA variant Y408L; E457G; N531G; WT; GGSSGG (SEQ ID NO: 6); CR1(ccp15-17) (enzyme)” had a C4c EC50 of 113 nM.

“CFI-HSA variant Y408L; E457G; R462K (enzyme)” yielded a C4c EC50 of 142 nM.

For “CFI-HSA variant Y408L; E457G; R462K; F464Y (enzyme)”, the C4c EC50 is 156 nM.

In turn, “CFI-HSA variant Y408L; E457G; R462K; F464Y; N531G; GGSSGG (SEQ ID NO: 6); CR1 (ccp15-17) (from UniProt P17927) (enzyme)” came in with a C4c EC50 (nM) of 76.4 nM.

Take “CFI-HSA variant Y408L; E461Q; F464Y (enzyme)”: the C4c EC50 turned out to be 105 nM.

“CFI-HSA variant Y408L; E530K; N531G (enzyme)” came in with a C4c EC50 of 111 nM.

As to “CFI-HSA variant Y408L; E530R; N531G (enzyme)”, the C4c EC50 is 229 nM.
